{
  "source": "patent US20260266838A1",
  "about": "(NORDIC BIOSCIENCE A S, published 2026)",
  "binders": {"B1": {"name": "Selection peptide VDTLPQKPRE (peptide)", "peptide": "VDTLPQKPRE", "modifications": "not fully specified", "notes": "Synthetic peptide (Genscript); the end 75 follows from the ten residues; also called calibrator peptide"}},
  "target": "T1, monoclonal antibody (mAb) specific for the N-terminus amino acid sequence …, HRP-labeled, employed in the … (horseradish peroxidase (HRP) label, site not stated)",
  "T1 construct": "Mouse IgG2b / kappa from a hybridoma; also called HRP-labeled mAb; selected mAb",
  "T1 sequence (VH, as listed by the source, chain 1 of 2)": "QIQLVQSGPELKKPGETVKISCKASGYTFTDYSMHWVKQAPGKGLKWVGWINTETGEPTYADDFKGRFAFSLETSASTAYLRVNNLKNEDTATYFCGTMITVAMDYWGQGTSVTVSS",
  "T1 sequence (VL, as listed by the source, chain 2 of 2)": "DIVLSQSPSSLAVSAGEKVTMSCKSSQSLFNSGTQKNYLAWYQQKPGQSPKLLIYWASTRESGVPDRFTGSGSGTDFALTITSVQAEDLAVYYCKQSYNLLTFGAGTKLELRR",
  "assay": "competitive ELISA: selection peptide against coated …-K-biotin for the HRP-labeled mAb; 10 independent runs",
  "protocol": "All incubation steps were performed in the dark with constant shaking at 300 rpm and followed by five times wash of the wells using washing buffer ([…], 50 mM NaCl, pH 7.2). A 10-point calibration curve was plotted using a 4-parameter logistic curve fit of the selection peptide dilutions. Data were analyzed using the SoftMax Pro version 7.1.0 software (Molecular Devices).\nAntibody specificity was evaluated using synthetic peptides and calculated as percentage of signal inhibition of two-fold diluted selection and deselection peptides (Table 1). Unspecific binding was tested using a nonsense screening peptide (biotin-[…] (SEQ ID NO: 23)). IC50 (half-maximal inhibition concentration) was determined from 10 independent runs of the 10-point calibration curve. The technical lower limit of detection (LLOD) was calculated as the mean signal of 60 determinations of a blank sample (i.e., assay buffer) plus 3× standard deviation (SD). The upper limit of quantification (ULOQ) was determined from 10 independent runs of the calibration curve and determined as the highest concentration of selection peptide determined with a recovery percentage within 100±20% of the nominal concentration and a CV<20%. […] Two-fold dilutions of four human serum samples quantified in three independent runs were used to evaluate assay linearity, calculated as percentage of recovery of the undiluted sample. […]",
  "note": "Ends that are not written are not given here.",
  "data": [
    {"binder": "B1", "values": [
      {"measurement": "IC50", "value": 0.0369, "unit": "µg/mL"}
    ]}
  ]
}
